Results published in PMC9935876, “Structure of the planar cell polarity cadherins Fat4 and Dachsous1” (Nature Communications, 2023).

B1: human Fat4(EC1–4) [human] / human Dchs1(EC1–4) [human] (parent complex)
chain 1: DPAEPRQVFQVLEEQPPGTLVGTIQTRPGFTYRLSESHALFAINSSTGALYTTSTIDRESLPSDVINLVVLSSAPTYPTEVRVLVRDLNDNAPVFPDPSIVVTFKEDSSSGRQVILDTATDSDIGSNGVDHRSYRIIRGNEAGRFRLDITLNPSGEGAFLHLVSKGGLDREVTPQYQLLVEVEDKGEPKRRGYLQVNVTVQDINDNPPVFGSSHYQAGVPEDAVVGSSVLQVAAADADEGTNADIRYRLQDEGTPFQMDPETGLITVREPLDFEARRQYSLTVQAMDRGVPSLTGRAEALIQLLDVNDNDPVVKFRYFPATSRYASVDENAQVGTVVALLTVTDADSPAANGNISVQILGGNEQRHFEVQSSKVPNLSLIKVASALDRERIPSYNLTVSVSDNYGAPPGAAVQARSSVASLVIFVNDINDHPPVF
chain 2: DPQAGSLDLQIDEEQPAGTLIGDISAGLPAGTAAPLMYFISAQEGSGVGTDLAIDEHSGVVRTARVLDREQRDRYRFTAVTPDGATVEVTVRVADINDHAPAFPQARAALQVPEHTAFGTRYPLEPARDADAGRLGTQGYALSGDGAGETFRLETRPGPDGTPVPELVVTGELDRENRSHYMLQLEAYDGGSPPRRAQALLDVTLLDINDHAPAFNQSRYHAVVSESLAPGSPVLQVFASDADAGVNGAVTYEINRRQSEGDGPFSIDAHTGLLQLERPLDFEQRRVHELVVQARDGGAHPELGSAFVTVHVRDANDNQPSMTVIFLSADGSPQVSEAAPPGQLVARISVSDPDDGDFAHVNVSLEGGEGHFALSTQDSVIYLVCVARRLDREERDAYNLRVTATDSGSPPLRAEAAFVLHVTDVNDNAPAF
B2: human Dchs1(EC1–4) [human] / human Fat4(EC1–4) [human] (parent complex)
chain 1: B1 chain 2
chain 2: B1 chain 1

Variants of: B1
Test: ITC; parent: 1; read off a plot

Row | ratio to parent | Variant
1 | ~1.8 | chain 1 DPAEPRQVFQVLEEQPPGTLVGTIQTRPGFTYRLSESHALFAINSSTGALYTTSTIDRESLPSDVINLVVLSSAPTYPTEVRVLVRDLNDNAPVFPDPSIVVTFKEDSSSGRQVILDTATDSDIGSNGVDHRSYRIIRGNEAGRFRLDITLNPSGEGAFLHLVSKGGLDREVTPQYQLLVEVEDKGEPKRRGYLQVNVTVQDINDNPPVFGSSHYQAGVPEDAVVGSSVLQVAAADADEGTNADIRYRLQDEGTPFQMDPETGLITVREPLDFEARRQYSLTVQAMDRGVPSLTGRAEALIQLLDVNDNDPVVKFRYAPATSRYASVDENAQVGTVVALLTVTDADSPAANGNISVQILGGNEQRHFEVQSSKVPNLSLIKVASALDRERIPSYNLTVSVSDNYGAPPGAAVQARSSVASLVIFVNDINDHPPVF [chain 1 F318A]

Variants of: B2
Test: ITC; parent: 1; read off a plot

Row | ratio to parent | Variant
2 | ~4.4 | chain 1 DPQAGSLDLQIDEEQPAGTLIGDISAGLPAGTAAPLMYAISAQEGSGVGTDLAIDEHSGVVRTARVLDREQRDRYRFTAVTPDGATVEVTVRVADINDHAPAFPQARAALQVPEHTAFGTRYPLEPARDADAGRLGTQGYALSGDGAGETFRLETRPGPDGTPVPELVVTGELDRENRSHYMLQLEAYDGGSPPRRAQALLDVTLLDINDHAPAFNQSRYHAVVSESLAPGSPVLQVFASDADAGVNGAVTYEINRRQSEGDGPFSIDAHTGLLQLERPLDFEQRRVHELVVQARDGGAHPELGSAFVTVHVRDANDNQPSMTVIFLSADGSPQVSEAAPPGQLVARISVSDPDDGDFAHVNVSLEGGEGHFALSTQDSVIYLVCVARRLDREERDAYNLRVTATDSGSPPLRAEAAFVLHVTDVNDNAPAF [chain 1 F39A]
